One test deals with GP120 (HIV-1 JRFL). Description: SPR. To be noted: chains peptide; modification not given.
The target in test [1] is HIV-1 JRFL gp120 protein (HIV-1 JRFL). Description: peptide blocking ELISA: coated gp120 pre-incubated with GP3 (125 ng), then recombinant CCR5-GST, anti-GST HRP; competitor CCR5.
Test [2] has as its target gp120 of HIV-1 BaL (HIV-1 BaL). Description: cell-based or functional assay.

The values below come from patent US20160298109A1.

Regarding SYSFCPRRQGGGGGGSGGSGK (modifications not checked) [GP3], the Kd in the test with GP120 (HIV-1 JRFL) was 39.1 µM. In addition, the reduction in absorbance (CCR5 binding to gp120) in test [1] came out at 65.8%. In test [2], this molecule displayed an inhibition of HIV-1 BaL infection (p24+ CD4 T cells), peptide without streptavidin, 100 µM of 34.5% and an inhibition of HIV-1 BaL infection (p24+ CD4 T cells), peptide without streptavidin, 250 µM of 54.7%.
LWCRRLNLLGGGGGGSGGSGK (modifications not checked) [GP16] yielded a Kd in the test with GP120 (HIV-1 JRFL) of 42.7 µM. For the same molecule, in test [2], the inhibition of HIV-1 BaL infection (p24+ CD4 T cells), peptide without streptavidin, 50 µM was less than 1%; the inhibition of HIV-1 BaL infection (p24+ CD4 T cells), peptide without streptavidin, 100 µM is less than 1%; the inhibition of HIV-1 BaL infection (p24+ CD4 T cells), peptide without streptavidin, 250 µM was 50%; the viral inhibition, peptide conjugated with streptavidin, 50 µM is 62.6%.
Regarding RRRNVPLILGGGGGGSGGSGK [GP2], the Kd with GP120 (HIV-1 JRFL) amounted to 76.1 µM.
For the molecule LLALSAYMVGGGGGGSGGSGK [GP11], in the test with GP120 (HIV-1 JRFL), the Kd amounted to 48.3 µM.
